In patent US20180016322A1 (INSERM INSTITUT NATIONAL DE LA SANTE ET DE LA RECHERCHE …, published 2018):

Target: synthetic MBP-HIS-EBOV-GP fusion peptide (Zaire Ebolavirus (EBOV), UniProt P0AEX9 27-392 = MBP)
Assay: ELISA on coated recombinant fusion protein

B1: murine monoclonal antibody 3327 (antibody, V domains shown)
VH: EVQLQESGPSLGKPSQTLSLTCSVTGDSITSGYWNWIRKFPGSKLEYMGYITSSGSTYYNPSLKSRISITRDTSKNQYYLQLNSVTSEDTATYYCAREGARSSGGWYFDVWGAGTTVTVSS
VL: DIVMTQSHKFMSTSVGDRVSITCKASQDVSSAVVWYQQKPGQSPKLLIYWASTRHTGVPDRFTGSGSGTDYTLTISSVQAEDLALYYCQQHYSTPTFGGGTKLEIKR
**Q.** Does B1 bind?
**A.** no binding
